This is an account of results in patent US20250171534A1 (D2M BIOTHERAPEUTICS, published 2025).

In test [1] the target is T1, human LILRB1 expressed on cells (human, UniProt Q8NHL6 24-650).
T1 construct: In 293T cells it was expressed from pCMV3-LILRB1-GFP; also called CHO-LILRB1; Jurkat-LILRB1
The test can be described thus: flow cytometry, CHO-LILRB1 cells.

Test [2] deals with T2, LILRB2-ECD-HIS (SinoBiological Cat #: 14132-H02H) (human, UniProt Q8N423 22-460).
T2 construct: Bought protein; also called monomeric antigen LILRB2-ECD-HIS; not shown: His tag
The test can be described thus: SPR (Carterra LSA), antibody captured, antigen injected.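 Further: kd obtained from kinetic analysis of antibody binding to the antigen, with association and dissociation phases fitted in the instrument software.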

Test [3] addresses T3, LILRB1-ECD-HIS (SinoBiological Cat #: 16014-H02H) (human, UniProt Q8NHL6 24-461).
T3 construct: Bought protein; also called monomeric antigen LILRB1-ECD-HIS; not shown: His tag
Described as above.

Test [4] deals with T4, human LILRB2 expressed on cells (human, UniProt Q8N423 22-597).
T4 construct: In 293T cells it was expressed from pCMV3-LILRB2-GFP; also called CHO-LILRB2; Jurkat-LILRB2
The test can be described thus: flow cytometry, CHO-LILRB2 cells.

The target in test [5] is T4, human LILRB2 expressed on cells. Briefly: flow cytometry on CHO-LILRB2 cells (CHO-RB2), titrated antibody, labelled anti-human Fc, gMFI.
Test [6] concerns the target T5, cynomolgus (monkey) LILRB2 expressed on CHO cells (cynomolgus monkey).
T5 construct: whole, on cells; Putative orthologue; also called cynoLILRB2; cynoRB2
Briefly: flow cytometry on CHO-cynoLILRB2 cells (CHO-cyno RB2), titrated antibody, labelled anti-human Fc, gMFI.

Test [7] addresses T1, human LILRB1 expressed on cells. Briefly: flow cytometry on CHO-LILRB1 cells (CHO-RB1), titrated antibody, labelled anti-human Fc, gMFI.
For test [8], the target named is T5, cynomolgus (monkey) LILRB2 expressed on …. Briefly: flow cytometry on CHO-cynoLILRB2 cells.
In test [9] the target is T6, LILRA6 expressed on cells (human, UniProt Q6PI73 24-481).
T6 construct: whole, on cells; GFP-tagged; also called human LILRA6; CHO-LILRA6
Briefly: flow cytometry on CHO-LILRA6 cells, non-linear fit of the curves of FIG. 26F.

Test [10] addresses T4, human LILRB2 expressed on cells. The test can be described thus: flow cytometry on CHO-LILRB2 cells, non-linear fit of the curves of FIG. 26B.
Test [11] deals with T5, cynomolgus (monkey) LILRB2 expressed on …. The test can be described thus: flow cytometry on CHO-cynoLILRB2 cells, non-linear fit of the curves of FIG. 26D.
For test [12], the target named is T7, LILRB3 expressed on cells (human, UniProt O75022 24-631).
T7 construct: whole, on cells; Expressed with a GFP tag from the bought plasmid; also called human LILRB3; CHO-LILRB3
The test can be described thus: flow cytometry on CHO-LILRB3 cells (CHO-RB3), titrated antibody, labelled anti-human Fc, gMFI.

The target in test [13] is T1, human LILRB1 expressed on cells. The test can be described thus: flow cytometry on CHO-LILRB1 cells, non-linear fit of the curves of FIG. 26A.
The target of test [14] is T7, LILRB3 expressed on cells. The test can be described thus: flow cytometry on CHO-LILRB3 cells, non-linear fit of the curves of FIG. 26C.
Test [15] concerns the target T8, LILRA1 expressed on cells (human, UniProt O75019 17-489).
T8 construct: whole, on cells; GFP-tagged; also called human LILRA1; CHO-LILRA1
The test can be described thus: flow cytometry on CHO-LILRA1 cells (CHO-RA1), titrated antibody, labelled anti-human Fc, gMFI.

Test [16] concerns the target T8, LILRA1 expressed on cells. Briefly: flow cytometry on CHO-LILRA1 cells, non-linear fit of the curves of FIG. 26E.
The target in test [17] is T1, human LILRB1 expressed on cells. Briefly: flow cytometry, CHO-LILRB1 cells. This is another data set of the same source.
The target of test [18] is T8, LILRA1 expressed on cells. Briefly: flow cytometry on 293T cells transiently expressing LILRA1, APC anti-human Fc; gMFI as fold to IgG staining.
The target in test [19] is T9, LILRA5 expressed on 293T cells (UniProt A6NI73 42-299, limits assumed).
T9 construct: whole, on cells; GFP-tagged, transient
Briefly: flow cytometry on 293T cells transiently expressing LILRA5, APC anti-human Fc; gMFI as fold to IgG staining.

In test [20] the target is T10, LILRB5 expressed on 293T cells (UniProt O75023 24-590, limits assumed).
T10 construct: whole, on cells; GFP-tagged, transient
The test can be described thus: flow cytometry on 293T cells transiently expressing LILRB5, APC anti-human Fc; gMFI as fold to IgG staining.

The target in test [21] is T11, LILRB4 expressed on 293T cells (UniProt Q8NHJ6 22-448, limits assumed).
T11 construct: whole, on cells; GFP-tagged, transient
The test can be described thus: flow cytometry on 293T cells transiently expressing LILRB4, APC anti-human Fc; gMFI as fold to IgG staining.

The target of test [22] is T12, LILRA3 expressed on 293T cells (UniProt Q8N6C8 24-439, limits assumed).
T12 construct: whole, on cells; GFP-tagged, transient
The test can be described thus: flow cytometry on 293T cells transiently expressing LILRA3, APC anti-human Fc; gMFI as fold to IgG staining.

For test [23], the target named is T7, LILRB3 expressed on cells. Briefly: flow cytometry on 293T cells transiently expressing LILRB3, APC anti-human Fc; gMFI as fold to IgG staining.
Test [24] has as its target T13, LILRA4 expressed on 293T cells (UniProt P59901 24-499, limits assumed).
T13 construct: whole, on cells; GFP-tagged, transient
The test can be described thus: flow cytometry on 293T cells transiently expressing LILRA4, APC anti-human Fc; gMFI as fold to IgG staining.

The target in test [25] is T6, LILRA6 expressed on cells. Briefly: flow cytometry on 293T cells transiently expressing LILRA6, APC anti-human Fc; gMFI as fold to IgG staining.
Test [26] has as its target T14, LILRA2 expressed on 293T cells (UniProt Q8N149 24-483, limits assumed).
T14 construct: whole, on cells; GFP-tagged, transient
The test can be described thus: flow cytometry on 293T cells transiently expressing LILRA2, APC anti-human Fc; gMFI as fold to IgG staining.

Test [27] has as its target T4, human LILRB2 expressed on cells. Briefly: flow cytometry on 293T cells transiently expressing LILRB2, APC anti-human Fc; gMFI as fold to IgG staining.
Test [28] addresses T1, human LILRB1 expressed on cells. The test can be described thus: flow cytometry, CHO-LILRB1 cells; blocked ligand: APC HLA-G trimer tetramer.
Test [29] has the same target. The test can be described thus: flow cytometry, CHO-LILRB1 cells. The source holds these as a separate data set.
Test [30] addresses T4, human LILRB2 expressed on cells. Briefly: flow cytometry, CHO-LILRB2 cells. This is another data set of the same source.

T4 sequence (Q8N423 other isoform, or with tags, fused parts or gaps limits assumed): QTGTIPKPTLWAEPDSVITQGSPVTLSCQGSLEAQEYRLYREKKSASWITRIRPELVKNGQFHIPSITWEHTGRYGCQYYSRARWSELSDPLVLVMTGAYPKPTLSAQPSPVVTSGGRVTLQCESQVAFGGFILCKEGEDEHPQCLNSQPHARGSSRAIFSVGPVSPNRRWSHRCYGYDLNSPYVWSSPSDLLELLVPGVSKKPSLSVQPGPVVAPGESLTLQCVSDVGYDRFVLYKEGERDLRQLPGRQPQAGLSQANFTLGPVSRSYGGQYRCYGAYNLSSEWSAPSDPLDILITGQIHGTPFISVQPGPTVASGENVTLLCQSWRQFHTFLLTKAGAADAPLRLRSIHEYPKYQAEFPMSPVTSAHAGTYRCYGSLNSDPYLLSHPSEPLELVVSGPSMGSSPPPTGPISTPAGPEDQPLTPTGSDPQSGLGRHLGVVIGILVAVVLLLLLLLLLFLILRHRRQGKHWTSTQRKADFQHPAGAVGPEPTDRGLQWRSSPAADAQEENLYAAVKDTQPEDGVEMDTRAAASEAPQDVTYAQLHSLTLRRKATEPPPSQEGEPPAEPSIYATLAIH
T1 sequence (Q8NHL6 other isoform, or with tags, fused parts or gaps limits assumed): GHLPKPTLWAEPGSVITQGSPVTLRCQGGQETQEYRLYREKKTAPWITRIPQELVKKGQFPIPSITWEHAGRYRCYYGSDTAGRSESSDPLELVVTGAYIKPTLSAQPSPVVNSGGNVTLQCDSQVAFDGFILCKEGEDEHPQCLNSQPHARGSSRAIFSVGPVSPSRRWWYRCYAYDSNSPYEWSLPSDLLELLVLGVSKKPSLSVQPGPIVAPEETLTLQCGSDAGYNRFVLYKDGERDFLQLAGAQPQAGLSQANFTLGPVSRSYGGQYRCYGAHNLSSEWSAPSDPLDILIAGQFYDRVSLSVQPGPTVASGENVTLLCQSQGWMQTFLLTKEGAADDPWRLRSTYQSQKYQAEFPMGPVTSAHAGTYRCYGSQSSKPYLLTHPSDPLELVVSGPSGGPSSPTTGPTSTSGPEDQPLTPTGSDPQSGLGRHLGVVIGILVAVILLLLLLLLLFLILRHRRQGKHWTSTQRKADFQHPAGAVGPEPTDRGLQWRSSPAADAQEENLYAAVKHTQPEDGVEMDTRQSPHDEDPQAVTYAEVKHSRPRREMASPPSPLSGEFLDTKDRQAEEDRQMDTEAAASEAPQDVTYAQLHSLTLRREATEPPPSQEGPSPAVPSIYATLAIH
T8 sequence (O75019 17-489): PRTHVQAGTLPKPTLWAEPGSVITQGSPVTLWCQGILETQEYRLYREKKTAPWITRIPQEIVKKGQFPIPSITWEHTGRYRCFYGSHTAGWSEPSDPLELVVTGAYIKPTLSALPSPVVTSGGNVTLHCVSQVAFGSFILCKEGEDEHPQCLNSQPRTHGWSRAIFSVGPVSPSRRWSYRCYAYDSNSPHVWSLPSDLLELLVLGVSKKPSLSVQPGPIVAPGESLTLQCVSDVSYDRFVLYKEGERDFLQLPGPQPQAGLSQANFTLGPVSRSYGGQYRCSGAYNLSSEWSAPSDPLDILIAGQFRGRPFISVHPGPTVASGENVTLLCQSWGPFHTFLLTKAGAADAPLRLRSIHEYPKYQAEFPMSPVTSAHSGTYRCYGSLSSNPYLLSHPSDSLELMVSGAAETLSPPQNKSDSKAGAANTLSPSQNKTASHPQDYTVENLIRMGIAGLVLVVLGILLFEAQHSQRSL
T2 sequence (Q8N423 other isoform, or with tags, fused parts or gaps H02H H02H): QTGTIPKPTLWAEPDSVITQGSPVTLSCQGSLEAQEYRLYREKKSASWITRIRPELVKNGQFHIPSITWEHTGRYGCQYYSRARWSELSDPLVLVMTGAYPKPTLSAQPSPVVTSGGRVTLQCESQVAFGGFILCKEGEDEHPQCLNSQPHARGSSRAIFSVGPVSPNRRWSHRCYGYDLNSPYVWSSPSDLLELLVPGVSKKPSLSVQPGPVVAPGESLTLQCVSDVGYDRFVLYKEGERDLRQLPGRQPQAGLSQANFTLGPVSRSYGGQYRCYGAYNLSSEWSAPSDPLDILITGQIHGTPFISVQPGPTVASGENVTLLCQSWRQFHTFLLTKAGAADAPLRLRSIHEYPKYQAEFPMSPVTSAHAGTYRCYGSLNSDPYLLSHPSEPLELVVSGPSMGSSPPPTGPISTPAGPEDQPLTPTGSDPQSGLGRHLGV
T6 sequence (Q6PI73 24-481): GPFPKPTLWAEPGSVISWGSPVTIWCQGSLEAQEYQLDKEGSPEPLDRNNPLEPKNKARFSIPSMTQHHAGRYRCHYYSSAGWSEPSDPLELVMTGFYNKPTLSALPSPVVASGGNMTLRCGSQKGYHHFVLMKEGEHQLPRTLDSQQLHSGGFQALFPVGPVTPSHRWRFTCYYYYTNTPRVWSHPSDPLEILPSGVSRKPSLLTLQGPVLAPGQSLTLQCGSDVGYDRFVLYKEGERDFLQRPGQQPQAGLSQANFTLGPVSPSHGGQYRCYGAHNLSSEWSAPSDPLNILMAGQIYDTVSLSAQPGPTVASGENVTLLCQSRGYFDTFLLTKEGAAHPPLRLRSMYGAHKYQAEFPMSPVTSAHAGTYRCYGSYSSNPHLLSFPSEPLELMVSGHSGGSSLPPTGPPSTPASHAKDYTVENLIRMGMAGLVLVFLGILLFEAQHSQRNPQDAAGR
T3 sequence (Q8NHL6 other isoform, or with tags, fused parts or gaps H02H H02H): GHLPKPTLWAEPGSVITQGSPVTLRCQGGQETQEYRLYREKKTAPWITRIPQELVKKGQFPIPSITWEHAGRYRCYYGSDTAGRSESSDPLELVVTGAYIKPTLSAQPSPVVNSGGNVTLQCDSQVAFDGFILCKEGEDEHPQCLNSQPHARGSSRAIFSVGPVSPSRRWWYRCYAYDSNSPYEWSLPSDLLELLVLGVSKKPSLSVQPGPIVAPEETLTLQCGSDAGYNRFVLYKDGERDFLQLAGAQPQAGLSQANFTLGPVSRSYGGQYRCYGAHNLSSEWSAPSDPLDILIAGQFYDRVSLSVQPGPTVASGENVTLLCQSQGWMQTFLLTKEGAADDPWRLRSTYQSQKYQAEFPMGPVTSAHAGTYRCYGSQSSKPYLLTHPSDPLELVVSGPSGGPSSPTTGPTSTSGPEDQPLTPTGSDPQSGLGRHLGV
T12 sequence (Q8N6C8 24-439 limits assumed): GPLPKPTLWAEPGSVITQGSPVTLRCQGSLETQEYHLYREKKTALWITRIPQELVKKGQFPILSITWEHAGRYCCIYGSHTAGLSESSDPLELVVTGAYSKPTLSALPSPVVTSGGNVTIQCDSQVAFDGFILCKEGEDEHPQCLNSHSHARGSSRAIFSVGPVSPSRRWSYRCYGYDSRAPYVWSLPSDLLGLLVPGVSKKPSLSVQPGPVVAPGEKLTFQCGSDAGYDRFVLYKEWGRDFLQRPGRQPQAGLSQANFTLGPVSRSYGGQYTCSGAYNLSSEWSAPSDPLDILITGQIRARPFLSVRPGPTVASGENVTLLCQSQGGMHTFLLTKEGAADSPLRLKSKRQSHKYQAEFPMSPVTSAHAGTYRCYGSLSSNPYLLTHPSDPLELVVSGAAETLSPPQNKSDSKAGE
T13 sequence (P59901 24-499 limits assumed): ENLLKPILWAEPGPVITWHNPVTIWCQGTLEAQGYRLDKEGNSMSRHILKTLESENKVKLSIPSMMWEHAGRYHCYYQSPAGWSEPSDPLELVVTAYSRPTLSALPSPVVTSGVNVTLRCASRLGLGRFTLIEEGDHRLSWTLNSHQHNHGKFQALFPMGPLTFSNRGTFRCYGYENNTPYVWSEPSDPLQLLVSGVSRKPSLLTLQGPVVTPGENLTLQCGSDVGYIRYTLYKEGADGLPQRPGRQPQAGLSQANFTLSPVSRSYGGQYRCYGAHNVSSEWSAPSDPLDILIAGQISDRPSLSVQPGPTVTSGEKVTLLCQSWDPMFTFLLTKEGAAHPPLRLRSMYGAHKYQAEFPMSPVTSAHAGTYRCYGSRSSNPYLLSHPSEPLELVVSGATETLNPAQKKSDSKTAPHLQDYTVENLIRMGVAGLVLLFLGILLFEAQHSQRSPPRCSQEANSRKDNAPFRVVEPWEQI
T9 sequence (A6NI73 42-299 limits assumed): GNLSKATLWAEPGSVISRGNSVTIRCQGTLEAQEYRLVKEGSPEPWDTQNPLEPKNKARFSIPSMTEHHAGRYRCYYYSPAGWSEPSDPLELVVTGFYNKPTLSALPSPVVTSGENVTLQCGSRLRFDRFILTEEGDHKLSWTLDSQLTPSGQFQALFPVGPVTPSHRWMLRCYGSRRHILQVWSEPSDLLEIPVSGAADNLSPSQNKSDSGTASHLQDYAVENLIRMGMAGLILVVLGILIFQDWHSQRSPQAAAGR
T10 sequence (O75023 24-590 limits assumed): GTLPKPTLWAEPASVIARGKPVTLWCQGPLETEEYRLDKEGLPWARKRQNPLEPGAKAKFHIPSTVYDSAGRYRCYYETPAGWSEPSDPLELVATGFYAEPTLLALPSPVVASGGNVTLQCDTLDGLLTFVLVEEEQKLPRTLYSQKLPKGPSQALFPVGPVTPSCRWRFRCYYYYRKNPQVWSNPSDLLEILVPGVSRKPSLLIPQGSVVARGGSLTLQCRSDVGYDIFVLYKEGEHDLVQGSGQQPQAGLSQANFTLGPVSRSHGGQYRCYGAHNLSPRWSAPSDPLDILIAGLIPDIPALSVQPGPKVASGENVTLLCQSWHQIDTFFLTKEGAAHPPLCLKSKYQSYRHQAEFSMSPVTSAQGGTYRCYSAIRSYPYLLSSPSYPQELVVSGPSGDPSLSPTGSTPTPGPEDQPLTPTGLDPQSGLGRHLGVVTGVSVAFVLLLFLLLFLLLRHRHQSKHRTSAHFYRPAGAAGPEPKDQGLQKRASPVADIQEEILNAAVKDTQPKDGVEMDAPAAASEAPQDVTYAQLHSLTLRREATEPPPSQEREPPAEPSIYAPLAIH

B1: D2M002-004 (antibody, human IgG1, V domains shown)
VH: EVQLQQSGAELVRPGALVKLSCKASGFNIKDYYMHWVKQRPEQGLEWIGWIDPESGNTIYDPKFQGKASMTADTSSNTAYLQLSSLTSEDTAVYYCARLDGSSYYAMDYWGQGTSVTVSS
VL: DILLTQSPASLAVSLGQRATISCRASESVDSYGNSFMHWYQQKPGQPPKLLIYLASNLESGVPARFSGSGSRTDFTLTIDPVEADDAATYYCQQNNEDPLTFGAGTKLELK
notes: Hit; also called clone #4
Consider B1, for which, in [1], the EC50 is 0.004 µg/mL and the “gMFI (max)” value was found to be 14300. Besides, the dissociation constant Kd in test [2] amounted to 1000 nM. Also, in [3], the Kd turned out to be 23.6 nM. The binding result in test [4] is given as “no binding (tested: 5 µg/mL)”.

B2: D2M002-103HV1 (antibody, V domains shown)
VH: QVQLVQSGAEVKKPGASVKVSCKASGYTFTRYVMHWVRQAPGQRLEWIGYINPNNEETKYSQKFKGRVTLTRDTSASTAYMELSSLRSEDTAVYYCARADLEILPYYDHARYAMDYWGQGTLVTVSS
VL: DIQMTQSPSSVSASVGDRVTITCRASENIYSHLAWYQQKPGKAPKLLVYNAKSLQSGVPSRFSGSGSGTDFTLTISSLQPEDFATYYCQHFWSTPPTFGGGTKVEIK
notes: Humanized and optimized variant of the D2M002-002 lineage
Take B2: the “EC50 (read off the curve)” value in test [5] is about 0.06 µg/mL; in test [6], about 0.06 µg/mL; in test [7] it was about 0.1 µg/mL; in [12], about 0.1 µg/mL; in test [15], about 0.2 µg/mL. Moreover, the 50% effective concentration (EC50) in [8] is 0.059 µg/mL; in test [9] it was 0.0473 µg/mL; in test [10], 0.0599 µg/mL; in test [11], 0.059 µg/mL; in test [13] it was 0.0941 µg/mL; in [14], 0.12 µg/mL. For the same molecule, in test [16], the half-maximal effective concentration (EC50) turned out to be 0.157 µg/mL. Moreover, the MaxMFI in test [10] was determined as 30000; in test [13] it was 111000; in test [16] it was 20300.

B3: Anti-LILRB1 antibody 3C1 (antibody, human IgG4 S228P, lambda, V domains shown)
VH: EVQLVESGGGLVQPGGSLRLSCAASGFTFSDYDMHWVRQATGKGLEWVATIDTAGDTYYPDSVRGRFTISRENAKNSLSLQMNSLRAGDTAVYFCARDVPGTGFDHWGQGTLVTVSS
VL: SSELTQDPAVSVALGQTVRITCQGDSLRSYYESWYQQKPGQAPVLVIYGKNNRPSGIPDRFSGSISGNTASLTITGTQAEDEADYYCNSRDNSGDHWVFGGGTRLTVLG
With B3, the half-maximal effective concentration (EC50) is 0.016 µg/mL in test [1] and 0.033 µg/mL in test [29]. Moreover, the “gMFI (max)” value in test [1] was 23000. The “EC50 (read off the curve)” value in [17] is about 0.02 µg/mL. Also, the binding result in test [18], in test [19], in [20], in [21], in test [22] and in test [23] was “no binding (tested: 5 µg/mL)” in each case. Besides, the binding result in [24], in test [25], in test [26] and in test [27] was “no binding (tested: 5 µg/mL)” each time. In test [28], this molecule registered an IC50 of 0.012 µg/mL.

B4: #45 (antibody, human IgG1, V domains shown)
VH: QIQLLQSGPELKKPGETVKISCKASGYTFTDYSMHWVKQAPGKGLKWMGWINTETGEPTYADDFKGRFAFSLETSASTAYLQINNLKNEDTATYFCARVVRRGYFDVWGAGTTVTVSS
VL: DIQMTQSPASLSASVGETVTITCRASGNIHNYLAWYQQKQGKSPQVLVYNAKTLADGVPSRFSGSGSGTQYSLKINSLQPEDFGSYYCQHFWSTPFTFGSGTKLEIK
notes: also called D2M002-045
Take B4: in test [30], the binding result was “no binding (tested: 5 µg/mL)”. The dissociation constant (Kd) turned out to be 1000 nM in test [2] and 94.4 nM in [3].
